Experimental findings from patent US20240084023A1 (NGM BIOPHARMACEUTICALS, published 2024) are described below.

The target in test [1] is full-length human GCGR on CHO cells (human, UniProt P47871 26-477). The test is described as follows: cell-based or functional assay.
Test [2] deals with T1, soluble human GCGR extracellular domain (human, UniProt P47871 26-136, limits assumed).
T1 construct: also called soluble GCGR
In words: Octet epitope binning; antibody in solution on GCGR ECD held by immobilized 4F8 (competitor). As for the experimental part: (§1) KD values for exemplary antibodies were derived using ForteBio software. Exemplary antibodies 6B5, 13G19, 14E9, 14F4, 4F8, 1G7, l A8, I H7, 1A2, 1B4, 1C1, 1H2, 1C3, and 1D2 were immobilized on biosensor tips. Soluble human GCGR extracellular domain (500 nM) was incubated with the antibodies for 3 minutes. […] The biosensor tips with bound antibody-GCGR complex were then dipped in 61B5, 5B11, or 3H-15 antibody solution and the change in signal measured as a nm shift. If the antibody in solution recognized the same epitope as the antibody immobilized on the chip surface, then <0.1 nm shift in signal (noise level of Octet) would be observed. If the antibody in solution recognized a distinct epitope relative to the immobilized antibody, an increase in signal of >0.15 nm shift would be observed. In the latter scenario, the antibody in solution could bind to the immobilized antibody-GCGR complex (presumably to a different epitope) resulting in the observed increase in signal.

Test [3] has as its target T1, soluble human GCGR extracellular domain. The test is described as follows: Octet epitope binning; antibody in solution on GCGR ECD held by immobilized 6B5 (competitor). On the procedure:
as §1

Test [4] shares this target. The test is described as follows: Octet epitope binning; antibody in solution on GCGR ECD held by immobilized 14E9 (competitor). On the procedure: as §1
For test [5] the target is unchanged. In words: Octet epitope binning; antibody in solution on GCGR ECD held by immobilized 1H2 (competitor). On the procedure:
as §1

Test [6] has the same target. In words: Octet epitope binning; antibody in solution on GCGR ECD held by immobilized 1A8 (competitor). As for the experimental part: as §1
The target is the same in test [7]. The test is described as follows: Octet epitope binning; antibody in solution on GCGR ECD held by immobilized 1A2 (competitor). As for the experimental part:
as §1

The target is the same in test [8]. The test is described as follows: Octet epitope binning; antibody in solution on GCGR ECD held by immobilized 1B4 (competitor). On the procedure: as §1
The target is the same in test [9]. In words: Octet epitope binning; antibody in solution on GCGR ECD held by immobilized 1C3 (competitor). As for the experimental part:
as §1

The target is the same in test [10]. The test is described as follows: Octet epitope binning; antibody in solution on GCGR ECD held by immobilized 1D2 (competitor). On the procedure: as §1
The target is the same in test [11]. In words: Octet epitope binning; antibody in solution on GCGR ECD held by immobilized 14F4 (competitor). As for the experimental part: as §1
For test [12] the target is unchanged. The test is described as follows: Octet epitope binning; antibody in solution on GCGR ECD held by immobilized 13G9 (competitor). As for the experimental part: as §1
Test [13] shares this target. The test is described as follows: Octet epitope binning; antibody in solution on GCGR ECD held by immobilized 1H7 (competitor). On the procedure: as §1
The target is the same in test [14]. The test is described as follows: Biacore SPR, captured antibody, soluble human GCGR extracellular domain as analyte. As for the experimental part:
In some experiments, supernatants were screened for binding to human GCGR using a Biacore SPR system. Briefly, anti-mouse Fc antibody (Sigma-Aldrich) was immobilized on all four flow cells of a CM5 chip using amine coupling reagents (GE Healthcare LifeSciences). Hybridoma supernatants were diluted three-fold with PBS-P buffer (PBS containing 0.005% P20) and injected for 30 seconds overflow cells 2, 3 and 4 to capture the test antibodies and using flow cell 1 as a reference. The next step was an injection of soluble human GCGR extracellular domain (100 nM in PBS-P buffer) at a flow rate of 50 μL/min and monitoring of the binding kinetics at 25° C. Kinetic data were collected over time and fit using the simultaneous global fit equation to yield affinity constants (KD values) for each antibody.

Test [15] shares this target. The test is described as follows: Octet epitope binning; antibody in solution on GCGR ECD held by immobilized 1C1 (competitor). As for the experimental part:
as §1

Test [16] has the same target. The test is described as follows: Octet epitope binning; antibody in solution on GCGR ECD held by immobilized 1G7 (competitor). As for the experimental part: as §1

Bounds are passed on as bounds.

T1 sequence (P47871 26-136 limits assumed): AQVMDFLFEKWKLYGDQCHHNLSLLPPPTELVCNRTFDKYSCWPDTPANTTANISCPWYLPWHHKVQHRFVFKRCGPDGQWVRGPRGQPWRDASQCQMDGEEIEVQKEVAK
full-length human GCGR on CHO cells, sequence (P47871 26-477): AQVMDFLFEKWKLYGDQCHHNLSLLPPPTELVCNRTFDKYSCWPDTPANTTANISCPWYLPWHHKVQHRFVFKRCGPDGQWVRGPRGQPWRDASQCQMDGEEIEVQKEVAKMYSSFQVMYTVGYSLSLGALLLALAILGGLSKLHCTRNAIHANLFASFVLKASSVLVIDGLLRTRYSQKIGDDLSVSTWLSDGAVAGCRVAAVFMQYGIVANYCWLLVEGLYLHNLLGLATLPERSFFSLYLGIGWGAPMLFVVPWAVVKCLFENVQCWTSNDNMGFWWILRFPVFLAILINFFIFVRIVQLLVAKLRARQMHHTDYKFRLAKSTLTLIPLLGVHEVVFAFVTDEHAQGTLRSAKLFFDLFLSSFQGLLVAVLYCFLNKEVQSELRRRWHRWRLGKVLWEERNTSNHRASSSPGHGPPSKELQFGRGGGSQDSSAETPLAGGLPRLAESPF

B1: anti-GCGR antibody 3H5 (antibody, V domains shown)
VH: QVQLQQSGAELVKPGASVRLSCKASGNTFTNYWMHWVKQRPGQGLEWIGMIHPNSGSTHYNEKFKNKATLTVDKSSNTAYMQLSGLTSEDSAVYYCGATADYVMDYWGQGTSVTVSS
VL: DIVLTQTPLSLPVNIGDQASISCKSTKSLLNSDGFTYLDWYLQKPGQSPQLLINLVSNRFSGVPDRFSGSGSGTEFILKISRVEAEDLGVYYCFQSNFLPLTFGAGTKLELK
notes: mouse hybridoma monoclonal antibody; also called 3H-15
For the molecule B1, in test [1], the “cAMP assay-1 IC50” value was determined as 24.6 nM. Besides, the “Shift on Octet by Antibody in Solution (nm)” value (shortened to “Shift on Octet by Antibody”) in test [2], in test [3], in [4], in [5], in test [6] and in test [7] was < 0.05 nm in each case. Also, the “Shift on Octet by Antibody” value in test [8], in [9], in test [10], in test [11], in test [12] and in test [13] was < 0.05 nm in each case. Also, the “Shift on Octet by Antibody” value in test [15] and in test [16] was < 0.05 nm each time. In test [14], binding was put at a Kd of 2.2 nM.
